# Data from paper PMC12499481, “Design of the Hydrophobic Core of Self‐Assembling Peptide Fibrils for Enhanced Neural Regeneration” (Small Science, 2025).
# B1: EF‐CI (peptide)
# peptide: KIKIQIN
# notes: designed variant of enhancing factor-C (EF-C), pattern KXKXQXN with X = I; self-assembling peptide; made on Fmoc-Asn(Trt) Wang resin; also called KIKIQIN; source: synthetic peptide (Fmoc-SPPS, preparative RP-HPLC, purity ≥ 90 %)
# B2: EF‐CF (peptide)
# peptide: KFKFQFN
# notes: designed variant of enhancing factor-C (EF-C), pattern KXKXQXN with X = F; self-assembling peptide; made on Fmoc-Asn(Trt) Wang resin; also called KFKFQFN; source: synthetic peptide (Fmoc-SPPS, preparative RP-HPLC, purity ≥ 90 %)
# B3: EF‐CL (peptide)
# peptide: KLKLQLN
# notes: designed variant of enhancing factor-C (EF-C), pattern KXKXQXN with X = L; self-assembling peptide; made on Fmoc-Asn(Trt) Wang resin; also called KLKLQLN; source: synthetic peptide (Fmoc-SPPS, preparative RP-HPLC, purity ≥ 90 %)
# B4: EF‐CV (peptide)
# peptide: KVKVQVN
# notes: designed variant of enhancing factor-C (EF-C), pattern KXKXQXN with X = V; self-assembling peptide; made on Fmoc-Asn(Trt) Wang resin; also called KVKVQVN; source: synthetic peptide (Fmoc-SPPS, preparative RP-HPLC, purity ≥ 90 %)
# B5: EF‐CW (peptide)
# peptide: KWKWQWN
# notes: designed variant of enhancing factor-C (EF-C), pattern KXKXQXN with X = W; self-assembling peptide; made on Fmoc-Asn(Trt) Wang resin; also called KWKWQWN; source: synthetic peptide (Fmoc-SPPS, preparative RP-HPLC, purity ≥ 90 %)
# Target: the molecule itself
# Test: dynamic light scattering; self-assembly; peptide diluted from 10 mM DMSO stock into DPBS (6 μM to 1 mM), 24 h incubation, room temperature; derived count rate below 5 kcps defined as no aggregation
row,Protein,aggregation concentration [µM]
1,B1,≤ 100
2,B2,≤ 100
3,B3,≤ 100
4,B4,≤ 100
5,B5,≤ 100

# Target: the molecule itself
# Test: conversion rate assay (3 kDa centrifugal filtration, fluorescamine fluorescence); self-assembly; 1 mM peptide incubated 24 h, monomers separated from fibers at 12 000 g for 60 min at 4 °C; filtrated against nonfiltrated fluorescence
row,Protein,conversion rate [%]
1,B1,93
2,B2,94
3,B3,73
4,B4,62
5,B5,94
